Laboratory results taken from patent publication US20150353951A1, “SYNTHETIC GLYPHOSATE-RESISTANT GENE AND USE THEREOF” (priority 2012, published 2015).
Where “and” joins values, the source holds several entries; their conditions need not be identical. Identical values can stand only once. Entries after “also recorded” stand apart in the source; their conditions may differ.

B1: G2-aroA: initial prokaryote glyphosate-resistant gene, SEQ ID NO. 1; tested as T6 transgenic maize (nucleic acid)
DNA: ATGGCGTGTTTGCCTGATGATTCGGGTCCGCATGTCGGCCACTCCACGCCACCTCGCCTTGACCAGGAGCCTTGTACCTTGAGTTCGCAGAAAACCGTGACCGTTACACCGCCCAACTTCCCCCTCACTGGCAAGGTCGCGCCCCCCGGCTCCAAATCCATTACCAACCGTGCGCTGTTGCTGGCGGCATTGGCCAAGGGCACCAGCCGTTTGAGCGGTGCGCTCAAAAGCGATGACACGCGCCACATGTCGGTCGCCCTGCGGCAGATGGGCGTCACCATCGACGAGCCGGACGACACCACCTTTGTGGTCACCAGCCAAGGCTCGCTGCAATTGCCGGCCCAGCCGTTGTTCCTCGGCAACGCTGGCACCGCCATGCGCTTTCTCACGGCTGCCGTGGCCACCGTGCAAGGCACCGTGGTACTGGACGGCGACGAGTACATGCAAAAACGCCCGATTGGCCCGCTGCTGGCTACCCTGGGCCAGAACGGCATCCAGGTCGACAGCCCCACCGGTTGCCCACCGGTCACCGTGCACGGCATGGGCAAGGTCCAGGCCAAGCGTTTCGAGATTGATGGTGGTTTGTCCAGCCAGTACGTATCGGCCCTGCTGATGCTCGCGGCGTGCGGCGAAGCGCCGATTGAAGTGGCGCTGACCGGCAAGGATATCGGTGCCCGTGGCTACGTGGACCTGACCCTCGACTGCATGCGTGCCTTCGGGGCCCAGGTGGACGCCGTGGACGACACCACCTGGCGCGTCGCCCCCACCGGCTATACCGCCCATGATTACCTGATCGAACCCGATGCGTCCGCCGCCACGTATTTGTGGGCCGCAGAAGTGCTGACCGGTGGGCGTATCGACATCGGCGTAGCCGCGCAGGACTTCACCCAGCCCGACGCCAAGGCCCAGGCCGTGATTGCGCAGTTCCCGAACATGCAAGCCACGGTGGTAGGCTCGCAAATGCAGGATGCGATCCCGACCCTGGCGGTGCTCGCCGCGTTCAACAACACCCCGGTGCGTTTCACTGAACTGGCGAACCTGCGCGTCAAGGAATGTGACCGCGTGCAGGCGCTGCACGATGGCCTCAACGAAATTCGCCCGGGCCTGGCGACCATCGAGGGCGATGACCTGCTGGTCGCCAGCGACCCGGCCCTGGCAGGCACCGCCTGCACCGCACTGATCGACACCCACGCCGACCATCGCATCGCCATGTGCTTTGCCCTGGCCGGGCTTAAAGTCTCGGGCATTCGCATTCAAGACCCGGACTGCGTGGCCAAGACCTACCCTGACTACTGGAAAGCCCTGGCCAGCCTGGGCGTTCACCTAAACGACTGA
B2: mG2-aroA: codons optimized glyphosate-resistant gene, SEQ ID NO. 2, encoding G2-aroA protein; tested as T6 transgenic maize (nucleic acid)
DNA: ATGGCGTGCCTCCCTGACGATTCTGGTCCGCATGTCGGACACTCCACTCCACCTCGCCTGGACCAGGAGCCCTGTACCTTGTCGTCCCAGAAGACGGTTACGGTGACGCCACCCAACTTCCCGTTGACTGGGAAGGTCGCTCCACCTGGCTCCAAGTCTATCACCAACCGTGCACTGTTGCTGGCTGCGTTGGCCAAAGGGACCAGTCGGTTGAGCGGTGCGCTCAAGTCGGATGACACTCGCCACATGTCGGTGGCTCTGAGGCAGATGGGTGTCACGATCGACGAACCGGATGACACGACCTTCGTGGTCACGAGCCAAGGCAGCCTCCAGCTGCCAGCCCAACCGTTGTTCCTCGGCAATGCTGGCACCGCTATGCGCTTCCTCACGGCTGCGGTGGCCACCGTCCAAGGCACGGTCGTTCTGGATGGCGATGAGTACATGCAGAAGCGTCCCATCGGACCCTTGCTGGCGACGCTTGGACAGAACGGCATCCAAGTGGATTCTCCCACCGGTTGCCCACCCGTCACCGTGCACGGCATGGGCAAGGTCCAAGCGAAGCGGTTCGAGATCGACGGTGGGCTCTCCTCCCAGTACGTCTCAGCCCTGCTCATGCTCGCTGCGTGTGGCGAGGCACCGATCGAGGTTGCGCTCACAGGCAAGGACATCGGTGCCAGAGGGTACGTGGACCTGACCCTCGACTGCATGAGAGCCTTTGGAGCACAGGTTGACGCAGTGGACGACACGACCTGGAGGGTCGCTCCCACAGGGTACACCGCTCATGACTATCTCATCGAACCCGACGCCAGCGCTGCGACGTACTTGTGGGCAGCCGAGGTCCTGACCGGTGGCAGGATTGATATTGGCGTTGCTGCGCAGGACTTCACCCAACCGGACGCCAAGGCTCAAGCCGTGATTGCGCAGTTCCCTAACATGCAAGCCACCGTGGTTGGCTCCCAGATGCAGGACGCGATCCCGACCCTGGCTGTCCTCGCAGCCTTCAACAATACTCCCGTGCGCTTCACTGAGCTTGCCAACCTTAGGGTCAAGGAGTGCGATCGCGTGCAAGCCCTGCACGATGGGCTCAACGAGATCAGGCCAGGCCTCGCCACCATCGAGGGAGACGACCTGCTCGTGGCCAGCGACCCAGCGCTTGCAGGGACAGCCTGCACAGCCCTGATCGACACCCACGCTGACCATCGCATCGCGATGTGCTTTGCCCTGGCTGGCCTTAAGGTCTCAGGCATTCGCATTCAGGACCCTGACTGCGTGGCCAAGACCTACCCTGACTACTGGAAGGCTCTTGCCAGCCTTGGCGTTCACCTCAACGACTGATGA

Key:
[1] = tested on: T6 generation transgenic maize plants; experiment: Detection of herbicide (Roundup/glyphosate) resistance of transgenic maize plants in field; type: in vivo; conditions: for phytotoxicity after Roundup treatment: 800 ml/mu Roundup (41% glyphosate) at 5-6 leaf age; for phytotoxicity response at late stage of plants growth: 800 ml/mu Roundup at 5-6 leaf age
Procedure: 1. the experimental materials: T6 generation transgenic maize plants, including plants transformed with mG2-aroA gene, plants transformed with G2-aroA gene, and plants transformed with pS3300-UG0 blank vector. At the same time, the non-transgenic maize plants were used as a control.
2. experiment design: 5M of row length, 3 row plots, 3 times of repeat, density: 60×35 cm
3. experiment treatment: applying Roundup (containing 41% of glyphosate, recommbinated applying amount in field is 150-250 ml/mu) in an amount of 800 ml/mu.
4. the experiment treatment timing: 5-6 leaf age. The experimental result was observed 7 days later.

[2] = tested on: G2-aroA protein; experiment: Double-antibody sandwich ELISA detection of G2-aroA protein expression in transgenic maize leaves; type: in vivo; conditions: for G2-aroA protein concentration: T6 generation transgenic maize, five-leaf stage, leaf fresh weight, single plants 1-4; for expression amount of G2-aroA protein in per gram (fresh weight) of leaf plate: transgenic maize
Procedure: The sample extracting solution: 25 mM of Tris-Cl (pH8.0), 10 mM of KCl, 20 mM of MgCl2.6H2O, 1 mM of DTT, 1 mM of PMSF (added before using).
Taking T6 generation transgenic maize plants (including plants transformed with the mG2-aroA gene and plants transformed with G2-aroA gene) at the same growth state (five-leaf stage), and taking about 1 g (fresh weight) of each function leaf (top-three leaves) plates, then grinding in liquid nitrogen. Transferring into 10 ml of centrifugal tube, into which 3 ml of sample extracting solution was added, and shaking strongly. Then centrifugalizing for 1 h at 4° C. The supernatant was taken as a sample to be detected and stand by service. Since the transformed genes are different, there are two samples to be detected, that is, a sample derived from mG2-aroA transgenic plants (sample to be detected is mG2-aroA) and a sample derived from G2-aroA transgenic plants (sample to be detected is G2-aroA). At the same time, the T6 generation maize plants transformed with pS3300-UG0 blank vector and the non-transgenic maize plants were used as controls.
The weight weighting when the leaf plates were ground in liquid nitrogen into powder samples and added into centrifugal tube containing the extracting solution subtracts that weighting before adding sample into centrifugal tube containing the extracting solution to obtain the fresh weight described above.
(1) Coating: the primary antibody (rabbit antibody) with concentration of 1.5 mg/ml (preparation method, see last part of this specification) against G2-aroA protein was diluted in coating buffer. And then after dilution added into ELIAS plate with a volume ratio of 1:1000 between polyclonal antibody against G2-aroA protein and coating buffer, 100 μL per well, and coating overnight in wet box at 4° C. […]
In another aspect, the sample to be detected prepared in step 1 was diluted with sample buffer in a ratio of 1:5, and then 100 μL of diluted sample was added to each well. […]
(9) Measurement: the OD value was measured at 405 nm.
(10) Plotting the standard curve: the standard solution concentration of G2-aroA protein of various of concentration (ng/mL) was plotted on X axis, and the OD value of G2-aroA protein standard measured in step (9) was plotted on Y axis, then the standard curve was plotted by EXCEL.
(11) The OD value of sample to be detected measured in step (9) was used in standard curve equation obtained in step (10) to calculate the content of G2-aroA protein in sample to be detected.
The content of G2-aroA protein in fresh weight=the content of G2-aroA protein of sample to be detected×the volume of sample to be detected/fresh weight of the sample, unit: μg/g. […]

Molecule	phytotoxicity after Roundup treatment [1]	phytotoxicity response at late stage of plants growth [1]	G2-aroA protein concentration [2]	expression amount of G2-aroA protein in per gram (fresh weight) of leaf plate [2]
B1	very serious phytotoxicity, and all plants showed yellowing, abnormalities; also recorded: phytotoxicity was very serious, plants all show yellowing, abnormalities	most of plants showed that the tassels did not differentiate, and ears did not silk or plants were short	10.671 µg/g and 20.227 µg/g and 14.237 µg/g and 15.096 µg/g	3.735 µg
B2	phytotoxicity was not obvious, they grew normally	no phytotoxicity response	3.304 µg/g and 2.977 µg/g and 4.321 µg/g and 4.339 µg/g	up to 15.057 μg
